We go through 20 sequences from the supplement of paper PMC9170038.

Series [1] concerns MS2 coat protein. In words: apparent KD of MS2 coat protein; higher = weaker reporter binding. The conditions noted are these: Eterna round: R107. As for the experimental part: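 RNA-MaP round R107: designed RNA switches with theophylline, tryptophan, arginine or FMN aptamers are transcribed on-chip within common flanks. They are titrated with SNAP-549-labelled MS2 coat protein in RNA-MaP buffer (100 mM Tris pH 7.5, 80 mM KCl, 4 mM MgCl2), without ligand or with the indicated ligand. Median apparent KD per design.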

The subject of series [2] is K4 kissing-loop RNA reporter. The experiment in a line: apparent KD of K4 kissing-loop reporter; higher = weaker reporter binding. The conditions noted are these: Eterna round: R107. As for the experimental part:
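RNA-MaP round R107: designed RNA switches with theophylline, tryptophan, arginine or FMN aptamers are transcribed on-chip within common flanks. They are titrated with a labelled K4 kissing-loop RNA reporter in RNA-MaP buffer (100 mM Tris pH 7.5, 80 mM KCl, 4 mM MgCl2), without ligand or with the indicated ligand. Median apparent KD per design.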

The mark [3] stands for this setting: input ligand: theophylline 20 uM.
[4] abbreviates: input ligand: theophylline 2 mM.
Setting [5] is: input ligand: tryptophan 2.4 mM.
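For apparent KD of K4 kissing-loop reporter in this document: bound reporter read as fluorescence of individual clusters on recovered sequencing chips by microscopy, with normalized cluster intensities fitted with a binding model.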

As for “AAAACAAACUCGGCCGCCACUCCCUCCCACCCAAGGACAUGAGGAUCACCCAUGUGGCAAAGCCCGAGGACCGGGAGAAACAAAA [Same State - Trytophan B]”, the “apparent KD of MS2 coat protein” value in series [1] (input ligand: arginine 13.2 mM) stood at 18.1 nM; in series [1] (input ligand: none), 22.2 nM; in series [1] (setting [3]), 28.3 nM; in series [1] (setting [4]) it was 26.4 nM; in series [1] (setting [5]) it was 20.3 nM.
For “AAAAGAGGUGGAAGGAGCGGGAGACAUGAGGAUCACCCAUGUGAAGUUACGAAAGGUUCAGCCCAGGUAGGUCGCCAUGUCGAAA [eefemullin]”, in that order: 1.33 nM, 17.5 nM, 55.1 nM, 58.8 nM and 33.7 nM.
Regarding “AAAAUAAUGGCGGCCGCCACUAACUCAUAUACAUCAUGUACAUGAGGAUCACCCAUGUAGGUGUAUAGGACCGGGCCAUAAUUAA [39MS split4]”, the “apparent KD of MS2 coat protein” value was found to be 18.3 nM in series [1] (input ligand: arginine 13.2 mM), 22.2 nM in series [1] (setting [3]) and 18.8 nM in series [1] (setting [4]).
Take “AAAAUCCUACCUGAGGAUCACCCGGGUGAAGGAGCGCCCGAAAGGGCAGGUAGGUCGCACCUGAGGAUCACCCUGGUAAACCUAA [ArgEX 23 #DoubleMS2 #OpenEnded]”: the “apparent KD of MS2 coat protein” value was determined as 103 nM in series [1] (input ligand: arginine 13.2 mM); 172 nM in series [1] (input ligand: none); 183 nM in series [1] (setting [3]); 234 nM in series [1] (setting [4]); 154 nM in series [1] (setting [5]).
In the same order, the values of “AAACAUGAGGAUCACCCAUGUAAUUCAGAAGGAGCGUCAUUAUUGACAGGUAGGUCGCUGAUAAAAUUUCUAUACAUCAUGUAUA [JR_SSArginiA_Sub013]” are 11.9 nM, 12.4 nM, 15.7 nM, 13 nM and 13.3 nM.
Consider “AAACAUUGCUGCGAUACCAGACAUGAGGAUCACCCAUGUACCAAGAAAACGUACAUAAAUGUCCCUUGGCAGCGCAGCAAUGAAA [MAT - Exclusion Theophlline B - Mod of Eli - D27]”, for which the results for the “apparent KD of MS2 coat protein” value in series [1] (input ligand: arginine 13.2 mM), in series [1] (setting [3]) and in series [1] (setting [5]) were 216 nM, 514 nM and 651 nM, respectively.
Turning to “AAACGACAUGAGGAUCACCCAUGUGCCGAUACCAGCCGGAUAUACGGCCCUUGGCAGCGGAGUAAAUCCGGAGGACAAUGGGUAA [Same State Theophylline A GF6]”, the “apparent KD of MS2 coat protein” value in series [1] (input ligand: arginine 13.2 mM) is 37.7 nM; in series [1] (input ligand: none), 57 nM; in series [1] (setting [3]), 49.5 nM; in series [1] (setting [4]), 92.4 nM; in series [1] (setting [5]), 39.5 nM.
“UGUCGAGUGAUGUUCGAUGUGGUGCAUGCAGAGGAUAUAGGGUGGGCUAGAAGGCUGAAAAGUGCUUCGAGUGAUGUUCGAAGAU [Exclusion FMN A GF9]”: the “apparent KD of K4 kissing-loop reporter” value turned out to be 129 nM in series [2] (input ligand: FMN 200 uM); 112 nM in series [2] (input ligand: arginine 13.2 mM); 123 nM in series [2] (input ligand: none); 100 nM in series [2] (setting [3]); 114 nM in series [2] (setting [5]).
On to “UGUCGUUCUAGUGAUGUUAGGACAGUUAUGAAGGAUAUACACACUCGUAGAAGGUCAGCUGCGGAAUGGCGAUUACGGUGAUUCG [theeternabot_sameState_KL_FMN_A_39]”, for which the “apparent KD of K4 kissing-loop reporter” value came to 157 nM in series [2] (input ligand: FMN 200 uM); 107 nM in series [2] (input ligand: arginine 13.2 mM); 128 nM in series [2] (input ligand: none); 132 nM in series [2] (setting [3]); 136 nM in series [2] (setting [5]).
For “UGUGCUGUGUACUGUAAUGUUAUGCGGGAUACCAGAGUCUUUUUAUUCCCUUGGCAGCUUGAGUGAUGUUUGAUGCUGUUCUUGU [kiokmullin]”, in that order: 362 nM, 301 nM, 370 nM, 331 nM and 314 nM.
As to “UGUGUUGUUUUGAUGUUUGUUGUAAGGUGGCAGGAUAUCGUAGAGGCGAGAAGGGCUUUUUUGCGUUAUGAGUGAUGUUUGUAGG [exeerzmullin]”, the “apparent KD of K4 kissing-loop reporter” value was determined as 592 nM in series [2] (input ligand: FMN 200 uM); 379 nM in series [2] (input ligand: arginine 13.2 mM); 614 nM in series [2] (input ligand: none); 471 nM in series [2] (setting [3]); 386 nM in series [2] (setting [5]).
Consider “UGUGUUUACCUGACCCAGUGAUGUUGGGAAGGAGCGUGCGAAAGCACAGGUAGGUCGCUCAACCUAAAGUCAGGUGAGCACUAAA [#SwitchBubble 9 #K4Early]”, for which the “apparent KD of K4 kissing-loop reporter” value in series [2] (input ligand: FMN 200 uM) worked out at 407 nM; in series [2] (input ligand: arginine 13.2 mM), 277 nM; in series [2] (input ligand: none) it was 447 nM; in series [2] (setting [3]), 470 nM; in series [2] (setting [5]) it was 328 nM.
In the same order, the values of “UGUGUUUACCUGACUCAGUGAUGUUGAGAAGGAGCGUGAGAAAGCACAGGUAGGUCGCUCAACCUAAAUUCAGGUGAGCACUAAA” are 241 nM, 274 nM, 238 nM, 302 nM and 204 nM.
For “UGUUAUGGGUGAGGAUAUGCUGACGAUGCGGGUGCGAGUGAUGUUGGUGUGGCUGGUGUCGUUUGUGCAGAAGGCACGCUCGUGG [BDazzled]”, in that order: 879 nM, 522 nM, 934 nM, 846 nM and 811 nM.
For the sequence “UUAACCAACAGCGAUACCAGCGUGGAGUGAUGUUCCGAGGAUCGGAGUGAUGUUCCGAAGCGCCCUUGGCAGCGCAGAAGCGCCA [Exclusion Theophylline B GF9]”, the “apparent KD of K4 kissing-loop reporter” value in series [2] (input ligand: FMN 200 uM) turned out to be 183 nM; in series [2] (input ligand: arginine 13.2 mM), 115 nM; in series [2] (input ligand: none), 130 nM; in series [2] (setting [3]) it was 139 nM; in series [2] (setting [5]), 134 nM.
In the same order, the values of “UUAGAGAUCUCAGGAUAUCAGUGAUGUUGGUGUGAAGAUCUGAGAUAGAAUUCUAUCUCAGAUCAAUGAGAAGGGAGAUCUCAUU [AK3.1 Exc FMN B]” are 385 nM, 162 nM, 209 nM, 181 nM and 168 nM.
Turning to “UUAGAGAUCUCAGGAUAUGAGUGAUGUUGGUAUCAAGAUCUGAGAUAGAAUUCUAUCUCAGAUCAAUCAGAAGGGAGAUCUCAUU [AK2.1 Exc FMN B]”, the “apparent KD of K4 kissing-loop reporter” value in series [2] (input ligand: FMN 200 uM) turned out to be 376 nM; in series [2] (input ligand: arginine 13.2 mM), 424 nM; in series [2] (input ligand: none) it was 534 nM; in series [2] (setting [3]) it was 583 nM; in series [2] (setting [5]), 550 nM.
Turning to “UUAGUACAUAGAGAUACCAGCCAUCGAAGUGAUGUUUCGAGAAAUAAUGAUGUUGGUAUAGGCCCUUGGCAGCUCUAUGUACAUU [AK1 Exc Theophylline B]”, the “apparent KD of K4 kissing-loop reporter” value in series [2] (input ligand: FMN 200 uM) stood at 103 nM; in series [2] (input ligand: arginine 13.2 mM), 95.4 nM; in series [2] (input ligand: none), 104 nM; in series [2] (setting [3]), 94.7 nM; in series [2] (setting [5]), 97.4 nM.
For “UUCAGACUACUACUAGACAGUAGUAUAUACUAGGAUAUCCAGAUAUGGAGAAGGAGUGAUGUUCCCUAGUAGUAGUGAAUUAAAU [KL-XFMN-A5]”, in that order: 661 nM, 380 nM, 387 nM, 375 nM and 335 nM.
In the same order, the values of “UUCAGUGAUGUUGAACACUGUUGUAUAAACUAGGAUAUGCUGAUAAGCAGAAGGAGUGAUGUUCCGUUCAACAUCAGAAUUAAAU [#08 K4 FMN A Exclusion]” are 662 nM, 415 nM, 488 nM, 496 nM and 269 nM.
